± gives the standard deviation.

For 37 sequences, protein stability index results are on record in the supplement of paper PMC10567573.

The nature of this series: protein stability index of a GFP-peptide fusion (GPS, HEK-293T) (PSI 1-6); higher = more stable. The conditions noted are these: c terminus: a fixed tail appended.
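Also: 24-mer peptide tiles fused after GFP, lentivirally expressed, FACS-sorted into six equal bins by GFP/DsRed ratio, decoded by Illumina sequencing, PSI is the read-weighted mean bin number.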

Regarding IHLDPRTREGFTLLHLAVNSNTPV [FEM1B], the protein stability index by setting is: (treatment: DMSO) 2.24 ± 0.41; (treatment: MLN4924 1 uM, 8 h) 2.17 ± 0.27.

Turning to IKGKSCRTITFEQFQEALEELAKK [TPPP], the protein stability index runs as follows: (treatment: DMSO) 2.53 ± 0.26; (treatment: MLN4924 1 uM, 8 h) 2.62 ± 0.36.

Take IKPENILITKQGIIKICDFGFAQI [CDKL4]: the protein stability index runs as follows: (treatment: DMSO) 2.18 ± 0.29; (treatment: MLN4924 1 uM, 8 h) 2.49 ± 1.

On to IKSEDMLKILKPSIPLERIHFDSY [FBXO33], for which the protein stability index is, setting by setting: (treatment: DMSO) 2.43 ± 0.23; (treatment: MLN4924 1 uM, 8 h) 2.36 ± 0.29.

With IKYFRVDFYEAMDDYTSAIEVQPN [TTC32], the protein stability index runs as follows: (treatment: DMSO) 2.48 ± 0.51; (treatment: MLN4924 1 uM, 8 h) 2.1 ± 0.46.

For the sequence ILILEGGYNLTSISESMAACTRSL [HDAC6], the protein stability index is 2.97 ± 0.61 (treatment: DMSO) and 2.63 ± 0.8 (treatment: MLN4924 1 uM, 8 h).

ILLNGVSGWIFFYVPSSESFIIYL [P2RY14]: the protein stability index is, setting by setting: (treatment: DMSO) 2.74 ± 0.27; (treatment: MLN4924 1 uM, 8 h) 2.84 ± 0.52.

As for ILTEPAQAQKCYRDLALVSRDGMN [INTS3], the protein stability index runs as follows: (treatment: DMSO) 3.28 ± 0.3; (treatment: MLN4924 1 uM, 8 h) 3.24 ± 0.6.

Take INGSEGDGAEIAEKFVFFIGSKNG [DYNC2LI1]: the protein stability index is 2.99 ± 0.21 (treatment: DMSO) and 3.4 ± 0.26 (treatment: MLN4924 1 uM, 8 h).

As to INRTFFFDVHPPLGKMLIGLAGYL [POMT2], the protein stability index (treatment: DMSO) was determined as 3.07 ± 0.57 and the protein stability index (treatment: MLN4924 1 uM, 8 h) amounted to 2.6 ± 0.59.

INVYGNTALHIACYNGQDAVVNEL [ANKRD44]: the protein stability index worked out at 2.06 ± 0.16 (treatment: DMSO) and 2.23 ± 0.16 (treatment: MLN4924 1 uM, 8 h).

On to INYNGIFSLKQEETLDYGKNYNYG [NEUROD6], for which the protein stability index was 2.49 ± 0.22 (treatment: DMSO) and 2.53 ± 0.22 (treatment: MLN4924 1 uM, 8 h).

Take IPLLSSVNVSDRGGRTALHHAALN [ANKRD44]: the protein stability index was 3.42 ± 0.38 (treatment: DMSO) and 3.16 ± 0.3 (treatment: MLN4924 1 uM, 8 h).

As to IPQAGGWGPWGPWGDCSRTCGGGV [ADAMTS4], the protein stability index is, setting by setting: (treatment: DMSO) 2.68 ± 0.15; (treatment: MLN4924 1 uM, 8 h) 2.47 ± 0.22.

As to IPVLYCMVFIAGILLNGVSGWIFF [P2RY14], the protein stability index (treatment: DMSO) was 3.28 ± 0.64 and the protein stability index (treatment: MLN4924 1 uM, 8 h) came out at 2.9 ± 0.37.

In turn, IRKGESRSEALAVDGAGKPGAEEA [CHGA] showed a protein stability index (treatment: DMSO) of 5.48 ± 0.12 and a protein stability index (treatment: MLN4924 1 uM, 8 h) of 5.43 ± 0.31.

Regarding ISKNSEKKMESEEDSNWEKSPDNE [GOLPH3L], the protein stability index was found to be 5.57 ± 0.21 (treatment: DMSO) and 5.58 ± 0.1 (treatment: MLN4924 1 uM, 8 h).

Turning to ISLNMCLLGALVLLGLGVLLFSGG [PBXIP1], the protein stability index by setting is: (treatment: DMSO) 2.03 ± 0.24; (treatment: MLN4924 1 uM, 8 h) 2.15 ± 0.2.

As for ITTNRFYGPQVNNISHTKEKKKGK [WASL], the protein stability index is, setting by setting: (treatment: DMSO) 4.17 ± 0.42; (treatment: MLN4924 1 uM, 8 h) 4.37 ± 0.29.

Turning to IVDQVLEEDFDSEQLSVLASCLQE [INTS3], the protein stability index is, setting by setting: (treatment: DMSO) 4.16 ± 0.16; (treatment: MLN4924 1 uM, 8 h) 4.23 ± 0.3.

On to IVISPFRLEELTNRLASLQQENKV [CCDC6], for which the protein stability index is 2.12 ± 0.15 (treatment: DMSO) and 2.4 ± 0.25 (treatment: MLN4924 1 uM, 8 h).

IVQGSSGAQGSGGGSTSAHYAVNS [CARM1] came in with a protein stability index (treatment: MLN4924 1 uM, 8 h) of 3.98 ± 0.91.

In the case of IVYATEKKQTKVEFPEARIFEETL [KCTD13], the protein stability index is 3 ± 0.11 (treatment: DMSO) and 2.85 ± 0.35 (treatment: MLN4924 1 uM, 8 h).

On to IWDALDWTMQAYERNFWDPSPQLD [WDR41], for which the protein stability index was 2.2 ± 0.27 (treatment: DMSO) and 2.02 ± 0.34 (treatment: MLN4924 1 uM, 8 h).

On to IYVIGGYDGRSRLSSVECLDYTAD [KLHL12], for which the protein stability index (treatment: DMSO) was determined as 2.86 ± 0.46 and the protein stability index (treatment: MLN4924 1 uM, 8 h) came to 2.63 ± 0.41.

With KAQQEFAAGVFSNPAVRTAAANAA [SCAMP3], the protein stability index was determined as 4.13 ± 0.11 (treatment: DMSO) and 4.11 ± 0.24 (treatment: MLN4924 1 uM, 8 h).

For KARVLRSKSLCHDEIENLLDSDHR [CDC25B], the protein stability index came out at 4.4 ± 0.13 (treatment: DMSO) and 4.62 ± 0.15 (treatment: MLN4924 1 uM, 8 h).

For the sequence KAVVFFVFYLWSAIEIFRYSFYML [HACD3], the protein stability index was 3.46 ± 0.28 (treatment: DMSO) and 3.08 ± 0.32 (treatment: MLN4924 1 uM, 8 h).

Regarding KCEHCRVLFLDHVMYTIHMGCHGF [IKZF1], the protein stability index turned out to be 2.24 ± 0.38 (treatment: DMSO) and 2.49 ± 0.63 (treatment: MLN4924 1 uM, 8 h).

As to KCVVHIHTPAGAAVSAMKCGLLPI [ADD1], the protein stability index reads like this: (treatment: DMSO) 2.69 ± 0.52; (treatment: MLN4924 1 uM, 8 h) 2.17 ± 0.56.

For KDLSNTFAKLEKLTILAKRKSLFD [STX5], the protein stability index worked out at 2.45 ± 0.16 (treatment: DMSO) and 2.51 ± 0.32 (treatment: MLN4924 1 uM, 8 h).

KDYNNLWIIKKHNTNSDPLDPSFP [POMT2]: the protein stability index by setting is: (treatment: DMSO) 3.15 ± 0.19; (treatment: MLN4924 1 uM, 8 h) 3.29 ± 0.26.

Consider KELCAMSEEQFRQRSPLGGDVLHA [SPDEF], for which the protein stability index runs as follows: (treatment: DMSO) 3.88 ± 0.27; (treatment: MLN4924 1 uM, 8 h) 3.87 ± 0.13.

With KELDENVEYEERESEFDIEDEDKS [RBBP5], the protein stability index by setting is: (treatment: DMSO) 5.65 ± 0.23; (treatment: MLN4924 1 uM, 8 h) 5.62 ± 0.32.

On to KEMEQLFSQYGRIITSRILVDQVT [ELAVL3], for which the protein stability index by setting is: (treatment: DMSO) 2.94 ± 0.24; (treatment: MLN4924 1 uM, 8 h) 3.41 ± 0.58.

For the sequence KEVVKKHSQFIGYPITLYLEKERE [HSP90AB1], for the setting “treatment: MLN4924 1 uM, 8 h”, the protein stability index amounted to 3.32 ± 0.24.

For the sequence KFGRTCLHAAAAGGNVECIKLLQS [ANKRD44], the protein stability index (treatment: DMSO) came out at 2.44 ± 0.45 and the protein stability index (treatment: MLN4924 1 uM, 8 h) amounted to 2.55 ± 0.12.
